# From patent US20100092465A1, “TREATMENT OF GRAFT-VERSUS-HOST DISEASE” (priority 2006, published 2010)
# Legend:
# [1] = molecular target: T1, muIL-27 (Mus musculus, UniProt O35228+Q8K3I6); test: Phospho-STAT3 neutralization assay, total human PBMCs, muIL-27; type: cell-based; conditions: ligand muIL-27 at EC90
# T1 sequence (O35228 19-228): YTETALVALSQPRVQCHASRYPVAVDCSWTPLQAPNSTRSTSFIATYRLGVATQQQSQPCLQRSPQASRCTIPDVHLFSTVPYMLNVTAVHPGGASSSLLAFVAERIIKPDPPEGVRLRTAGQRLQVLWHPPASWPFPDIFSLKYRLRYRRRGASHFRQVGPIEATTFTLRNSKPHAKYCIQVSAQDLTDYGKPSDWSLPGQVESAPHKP
# T1 sequence (Q8K3I6 29-234): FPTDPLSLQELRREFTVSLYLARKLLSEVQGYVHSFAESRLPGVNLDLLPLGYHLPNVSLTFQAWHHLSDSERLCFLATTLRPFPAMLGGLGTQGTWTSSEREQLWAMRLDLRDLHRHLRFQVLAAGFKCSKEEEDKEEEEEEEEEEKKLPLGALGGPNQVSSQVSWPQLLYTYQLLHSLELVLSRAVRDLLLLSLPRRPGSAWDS
# Text: Whole mouse spleens were harvested from C57 B1/6 mice and washed two times with 1×PBS before being plated out at 2×10^5 cells/well in assay media (RPMI 1640 plus 10% fetal bovine serum) in 96-well, round-bottom tissue culture plates. Total human PBMC (peripheral blood mononuclear cells) were thawed from a frozen vial collected from a leukapherisis donation and washed two times with 1×PBS before being plated out at 10^6 cells/well in assay media in 96-well, round-bottom tissue culture plates. […] Following pre-incubation, treatments were added to the plates containing the cells and incubated together at 37° C. for 15 minutes.
# Following incubation, cells were washed with ice-cold wash buffer (BIO-PLEX Cell Lysis Kit, BIO-RAD Laboratories, Hercules, Calif.) and put on ice to stop the reaction according to manufacturer's instructions. […]
# Capture beads (BIO-PLEX Phospho-Stat3 Assay, BIO-RAD Laboratories) were combined with 50 μL of 1:1 diluted lysates and added to a 96-well filter plate according to manufacture's instructions (BIO-PLEX Phosphoprotein Detection Kit, BIO-RAD Laboratories). […] After the final wash, beads were resuspended in 125 μL/well of bead suspension buffer, shaken for 30 seconds, and read on an array reader (BIO-PLEX, BIO-RAD Laboratories) according to the manufacture's instructions. Data were analyzed using analytical softward (BIO-PLEX MANAGER 3.0, BIO-RAD Laboratories). […]
# [2] = molecular target: T2, mouse ligand (single-chain IL27) (Mus musculus, UniProt O35228+Q8K3I6); test: SPR kinetics of soluble receptors with mouse IL27 ligand; conditions: binding with mouse ligand; gp130 not included
# T2 construct: amino-terminal peptide tag (FLAG in lot A1426F) (N)
# T2 sequence (O35228+Q8K3I6 with tags, fused parts or gaps): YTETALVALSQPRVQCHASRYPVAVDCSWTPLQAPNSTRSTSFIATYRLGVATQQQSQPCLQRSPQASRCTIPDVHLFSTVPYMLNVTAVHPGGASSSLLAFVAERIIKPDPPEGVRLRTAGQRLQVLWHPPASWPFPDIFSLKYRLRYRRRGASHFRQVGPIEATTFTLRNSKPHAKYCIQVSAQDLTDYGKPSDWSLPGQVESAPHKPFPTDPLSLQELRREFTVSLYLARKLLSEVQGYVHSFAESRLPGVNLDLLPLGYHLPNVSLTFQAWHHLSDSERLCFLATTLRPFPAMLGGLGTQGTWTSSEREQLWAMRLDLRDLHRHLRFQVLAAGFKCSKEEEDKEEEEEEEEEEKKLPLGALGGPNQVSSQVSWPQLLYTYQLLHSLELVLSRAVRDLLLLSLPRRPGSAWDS
# Experimental: Kinetic rate and affinity constant values for the mouse (IL27RAm(mFc1), Example 3) and human (IL27RA-Fc5, Example 4) soluble receptors were obtained by surface plasmon resonance (SPR) using an automated instrument (BIACORE 3000; Biacore International AB, Uppsala, Sweden). The mouse soluble receptor was tested against mouse ligand (lot A1418F), and the human soluble receptor was tested against both mouse (A1426F) and human (A1534F) ligands. For determination of the kinetic rate constants for the receptor-ligand interactions, the gp130 molecule was not included as part of the receptor complex.
# The IL27 ligands used in this study were single-chain molecules comprising EBI3 connected by its C-terminus to the N-terminus of IL-27 p28 via a polypeptide linker. Each of the ligands included an amino-terminal peptide tag.
# For the mouse IL27RA study, the soluble receptor was captured onto the chip surface by an isotype-specific anti-mouse Fc antibody (obtained from Jackson ImmunoResearch Laboratories, Inc., West Grove, Pa.) covalently immobilized to the chip (BIACORE CM5 chip) using the standard amine coupling protocol specified by the instrument manufacturer. […]
# All data were assessed using software provided with the instrument (BIACORE Evaluation software v. 3.2). […]
substance,measurement,setting,value
"human IL-27RA-Fc5: human IL27RA extracellular domain (amino acids 1 to 512 of SEQ ID NO:5) fused to Fc5, effector minus human gamma1 Fc; SEQ ID NO:3",IC50,[1],2.97 nM
same,ka,[2],8.1e+06 M⁻¹ s⁻¹
same,kd,[2],0.0018 s⁻¹
